The target of assay [1] is His6-VanSSC (full-length VanS sensor histidine kinase from Streptomyces coelicolor) (Streptomyces coelicolor) (UniProt Q9X942). As to the kind of experiment: native gel or EMSA. For orientation: In EMSA bound probe runs differently from free probe, usually more slowly.
Assay [2] shares this target. As to the kind of experiment: SEC; analytical gel filtration on Superose 12 10/300; 20 mM HEPES pH 7.8, 200 mM NaCl (legend: 300 mM NaCl), 0.075% DPC; elution volume compared with protein standards. For orientation: Size exclusion chromatography separates by hydrodynamic size, large species first.

Take “His6-VanSSC (full-length VanS sensor histidine kinase from Streptomyces coelicolor) (from UniProt Q9X942 1-364) (enzyme)”: the stoichiometry N in assay [1] and in assay [2] was 2 in each case.

Broadly, the stoichiometry N is the number of molecules, sites or subunits per partner or assembly.

Values taken from PMC7109055.
